For this assay, the target named is NADPH oxidase 3 (NOX3). As to the kind of experiment: cell-based or functional assay.

The substance p67^phox/NOXA2 displayed a PMA-induced superoxide generation of NOX3 (co-transfected HEK293 cells) of 2 fold.

(Values after patent US20090263323A1.)
